The text below walks through data of PMC6202311, “Substrate Recognition and Autoinhibition in the Central Ribonuclease RNase E”.

For this data set, the target named is RNase E NTD D303R D346R (Escherichia coli, UniProt P21513 1-529, D303R;D346R). The data set is described as follows: crystal structure (3.0 A); Mg2+, Zn2+; BLI: 25 mM HEPES pH 7.0, 150 mM NaCl, 100 mM KCl, 10 mM CaCl2, 0.5 mM TCEP; RNA immobilised on streptavidin sensors, protein 0-500 nM; temperature not stated. Particulars: protein: recombinant; tags: N-terminal His; chain copies: 4; hairpin, 3' single-stranded tail.

Take GUUAUAUGCCUUCUUGGAGGUAUAUAACAAAGAC (structured_RNA, 5' monophosphate; 2'-O-methyl on A33 and C34 (ompD +82, +83)) [MicC-ompD fusion]: the binding result is on record as “binds”.
